Paper PMC8097376 (2021)
Changes are numbered by the printed parent chain.

B1: nanobody NM1225 (VHH)
VHH: QVQLVESGGGLVQPGGSLRLSCAASGNILRVHDMGWYRQAPGKQREYVAMITHGGITNYIDSVKGRFTISRDNAKNTVYLQMNSLKPEDTAVYYCHAVLSSALNGVTETSSNWGQGTQVTVSS
B2: nanobody NM1229 (VHH)
VHH: EVQLQESGGGLVQPGESLRLSCAASGRTHDWYTMGWFRQAPGKEREFVARINWSSGMTYYADSVKGRFTISRDNPKNTVYLQMNSLTPDDTAVYYCNVHPFTSPDYWGQGTRVTVSS
B3: nanobody NM1227 (VHH)
VHH: EVQLVESGGGLVQPGGSLTLSCETSGRHFDIDDMGWYRQAPGKQRELVACITTESSTTYADAVKGRFTISRDNPDNTVYLQMTNLKPEDTAVYYCNAEMHPRSLDYALGNRDYWGQGAPVTVSS
B4: nanobody NM1222 (VHH)
VHH: EVQLVESGGGLVRPGGSLRLSCVGSGFTFSGYAINWYRQAPGKALELVAGISNAGDLTHYEEAMKGRVAISRANDKNTVYLQMDDLKPEDTAVYRCHAPGVRVGTGERNDVWGQGAQVTVSS
B5: nanobody NM1221 (VHH)
VHH: B4 VHH with E1D, R13Q, R19T, T28L, I34M, L57I, A73V, G104A, T105S, A116T
B6: nanobody NM1226 (VHH)
VHH: QVQLVESGGGSVQPGGSLRLSCLGSGSLDYYAIGWFRQAPGKEREGVSCIASSGDRTIYADSVKGRFTISRDYGKNTVYLQMNSLKPEDTAMYYCAALQGSYYYTGFVANEYDYWGQGAPVTVSS
B7: nanobody NM1228 (VHH)
VHH: DVQLVESGGGLVRPGGSLRLSCESSGRHFDIDTMGWYRQAPGKQRELVASITSEKSTVYADALKGRFTISRDIPDNNVYLQMNNLKPEDTAVYYCNAKMDPHSLDYALGNQVFWGQGSLVTVSS
B8: nanobody NM1223 (VHH)
VHH: EVQLVESGGGLVQPGGSLRLSCSASGFAFSSVSMSWVRLLPGKGTEWVAEIDRDGGNGNYEDSVKGRFTISRDNAKNTLFLQMNSLVPEDTALYYCRLGTRDHIMSGWGPGAPVTVSS
B9: nanobody NM1230 (VHH)
VHH: B4 VHH with E1Q, I34M, A63P, N109K
B10: nanobody NM1224 (VHH)
VHH: DVQLVESGGSLVQPGGSLRLSCETSRSSLDAYAIGWFRQAPGKEREGVASISSSSMRTEYADSVKGRFTISRDNAKNTAYLDMNSLKPEDTAVYYCAAAGEYGRAWPGLDWYEFEYEGPGSPVTVSS

Molecular target: T1, SARS-CoV-2 spike receptor-binding domain (RBD) (SARS-CoV-2, UniProt P0DTC2 319-541)
Test: BLI

**Q.** For B1, which Kd is on record?
**A.** The Kd was 53700 nM.

**Q.** B2 was tested. Which Kd did it give?
**A.** The Kd was 53.2 nM.

**Q.** Which Kd does the source give for B3 here?
**A.** Its Kd is 3.72 nM.

**Q.** Which Kd does the source give for B4 here?
**A.** Its Kd is 18 nM.

**Q.** B5 was tested. Which Kd did it give?
**A.** The Kd was 22.7 nM.

Molecular target: T1, SARS-CoV-2 spike receptor-binding …
Test: BLI
Remark: another data set of the same source

**Q.** Which koff does the source give for B6 here?
**A.** Its koff is 0.00115 s⁻¹.

**Q.** With B1 as the binder, how does the koff read?
**A.** Its koff is 0.473 s⁻¹.

**Q.** B7 was tested. Which koff did it give?
**A.** Its koff is 0.00064 s⁻¹.

**Q.** For B8, which koff is on record?
**A.** The koff was 0.00027 s⁻¹.

**Q.** B2 was tested. Which koff did it give?
**A.** The koff was 0.00985 s⁻¹.

**Q.** How did the koff turn out when B3 was run?
**A.** Its koff is 0.00079 s⁻¹.

**Q.** Which koff does the source give for B4 here?
**A.** The koff was 0.00294 s⁻¹.

**Q.** With B9 as the binder, how does the koff read?
**A.** The koff was 0.00166 s⁻¹.

**Q.** B5 was tested. Which koff did it give?
**A.** The koff was 0.00296 s⁻¹.

**Q.** How did the koff turn out when B10 was run?
**A.** The koff was 0.00267 s⁻¹.

Molecular target: S1 domain of the SARS-CoV-2 spike protein (SARS-CoV-2, UniProt P0DTC2 14-681)
Test: not given

**Q.** How did the IC50 turn out when B6 was run?
**A.** The IC50 was 1.44 nM.

**Q.** How did the IC50 turn out when B7 was run?
**A.** The IC50 was 0.85 nM.

**Q.** For B2, which IC50 is on record?
**A.** The IC50 was 56.1 nM.

**Q.** With B3 as the binder, how does the IC50 read?
**A.** Its IC50 is 3.51 nM.

**Q.** Which IC50 does the source give for B4 here?
**A.** The IC50 was 27.3 nM.

**Q.** Which IC50 does the source give for B9 here?
**A.** Its IC50 is 10.6 nM.

**Q.** For B5, which IC50 is on record?
**A.** Its IC50 is 43.3 nM.

Molecular target: T1, SARS-CoV-2 spike receptor-binding …
Test: not given

**Q.** With B2 as the binder, how does the IC50 read?
**A.** Its IC50 is 37.8 nM.

**Q.** With B3 as the binder, how does the IC50 read?
**A.** Its IC50 is 1.65 nM.

**Q.** Which IC50 does the source give for B4 here?
**A.** The IC50 was 5.8 nM.

**Q.** How did the IC50 turn out when B5 was run?
**A.** Its IC50 is 10.1 nM.

**Q.** B10 was tested. Which IC50 did it give?
**A.** Its IC50 is 36.6 nM.
